Laboratory results taken from publication PMC4966575.

Target: scFv 10-94 P (murine)
Assay: SPR

KD1 (bivalent model): 7.5 nM
Substance: Protein L (PpL), free (from UniProt Q51918 1-992) (natural protein)
